Among the data in article PMC9619061 are stoichiometry N values, retold here.

As a reminder, the stoichiometry N is a count of units in the complex or per binding partner.

In assay [1] the target is Coproheme decarboxylase from Geobacillus stearothermophilus (HemQ), His-tag present in all copies (Geobacillus stearothermophilus). The experiment in a line: cryo-EM structure; single particle reconstruction, purified protein on glow-discharged gold Quantifoil R 1.2/1.3 grids, 50 mM HEPES pH 7.5, 100 mM NaCl; C5 and C1 symmetry.
Assay [2] has the same target. Put plainly: SEC; Superdex 200 10/300, 1 ml/min, 50 mM HEPES pH 7.5, 100 mM NaCl; elution volume compared with the mass of a pentamer. A general note: In gel filtration, larger molecules generally elute earlier.
Assay [3] deals with Coproheme decarboxylase from Geobacillus stearothermophilus (HemQ), His-tag completely cleaved (Geobacillus stearothermophilus). The experiment in a line: cryo-EM structure; single particle reconstruction, purified protein on glow-discharged gold Quantifoil R 1.2/1.3 grids, 50 mM HEPES pH 7.5, 100 mM NaCl; C5 and C1 symmetry.
Assay [4] has the same target. Put plainly: SEC; Superdex 200 10/300, 1 ml/min, 50 mM HEPES pH 7.5, 100 mM NaCl; elution volume compared with the mass of a pentamer.
Assay [5] addresses Coproheme decarboxylase from Geobacillus stearothermophilus (HemQ), His-tag partially cleaved (Geobacillus stearothermophilus). Put plainly: cryo-EM structure; single particle reconstruction, purified protein on glow-discharged gold Quantifoil R 1.2/1.3 grids, 50 mM HEPES pH 7.5, 100 mM NaCl; C5 and C1 symmetry.
The target is the same in assay [6]. Put plainly: SEC; Superdex 200 10/300, 1 ml/min, 50 mM HEPES pH 7.5, 100 mM NaCl; elution volume compared with the mass of a pentamer.

“Coproheme decarboxylase from Geobacillus stearothermophilus (HemQ), His-tag present in all copies (enzyme)”: the stoichiometry N in assay [1] and in assay [2] was 5 throughout.

On to “Coproheme decarboxylase from Geobacillus stearothermophilus (HemQ), His-tag completely cleaved (enzyme)”, for which the stoichiometry N in assay [3] and in assay [4] was 5 each time.

“Coproheme decarboxylase from Geobacillus stearothermophilus (HemQ), His-tag partially cleaved (enzyme)”: the stoichiometry N in assay [5] and in assay [6] was 5 throughout.
